Data as given in US5444041A, “Convertible microemulsion formulations” (Ibah, Inc., priority 1992, dated 1995).

Experiments:
[1] = test system: Spraque-Dawley rats; assay: Rectal instillation of calcitonin microemulsions, serum Ca+2 in rats; type: in vivo, rat
Experimental: A series of experiments was carried out in rats using the w/o microemulsions of this invention to evaluate them as a vehicle for the rectal delivery of the peptide calcitonin, (used in the treatment of hypercalcemia by lowering Ca++ serum levels), whereby the body fluids of the rat would serve to convert the microemulsion to an o/w emulsion and thus release the calcitonin.
Formulations were produced which ranged from 3% to 15% (v/v) aqueous phase and which ranged from liquids to gels at room temperature. The formulations contained, in addition to the aqueous phase, one to three oils and a blend of two emulsifiers. […] Three formulations with different oil blends were chosen for biological evaluation in juvenile, male rat model (Spraque-Dawley rats; 140-170 gm).
Three w/o microemulsion formulations were tested which contained 3% v/v aqueous phase volume, and varying amounts of calcitonin/ml of emulsion. Two, Formulations A and B below, were formulated as liquids; the third microemulsion (Formulation C) was formulated in semi-solid (suppository) form by addition of a high-melting coconut oil to the microemulsion. […]
Serum was prepared from each blood sample and serum Ca^+2 (free ionized calcium) levels were determined using a Beckman calcium clinical assay kit.

[2] = Percent activity of horseradish peroxidase (OPD assay, 492 nm) after storage at 50° C.; type: physicochemical
Experimental: In Example 10, the protein horseradish peroxidase (HRP), was stored for given times and temperatures, then assayed in vitro, as shown in this example.
After storage for the specified time at 50° C., the microemulsion was then converted to an o/w emulsion by the addition of water. This was achieved by pipetting 30 μL of the microemulsion containing the horseradish peroxidase enzyme into 970 μL of 0.9 wt. % saline (NaCl) solution.
After conversion, the emulsion was then assayed for activity. This activity was compared with the activity of stock solutions of HRP which had been maintained at 50° C. for the same time and then pipetted into saline (30 μL into 970 μL of saline) in the same manner as the microemulsion above. The stock HRP was first diluted to the same HRP concentration as in the aqueous phase of the converted microemulsion.
The assay was carried out as follows:
1. Set spectrophotometer at 492 nm and 25° C.
2. Into the cuvette, pipet 2.97 mL OPD (O-phenylene diamine) buffer solution (1 tab.→26 mL)
3. Establish blank at 492 nm.
4. Into the cuvette, pipet 25 μL diluted control HRP solution. Mix and record the increase in absorbance at 492 nm for 5 minutes.
5. Same procedure is followed for microemulsion w/HRP solution. OPD=O-phenylene diamine
Percent activity was determined by using the following equation: [formula]

[3] = rat, in vivo
Experimental: A series of experiments was carried out using rats with the w/o microemulsion of this invention to evaluate them as a vehicle for the delivery of the human growth hormone, hGH. The body fluids of the rats served to convert the microemulsion to an o/w emulsion which activated the drug and promoted drug uptake across the mucosal membrane of the rat colon.
The rats were approximately 100 grams and were fasted for 24 hours prior to testing.
The injected group, Group C, received the extracted hGH in a buffer solution at the human equivalent dose of 0.05 mg/kg body weight. The two rectal administration groups, Groups A and B, received ten times the human equivalent dose.
The rats were anaesthetized just prior to dosing. Suppositories (Group A) and the buffer solution (Group B) administered rectally were sealed in the rectum by a plug and liquid cement. Group C animals were injected subcutaneously (SQ). After administering the dosage, serum hGH levels were determined at 30, 60, 120, 180, 240, and 300 minutes. […] The blood was centrifuged and the serum assayed by hGH ELISA (Medix Lab, Foster City, Calif.) for quantitation of the extracted growth hormone.
The AUC (area under the curve) for both routes of administration was determined using the trapezoid rule (M. Gibaldi, Biopharmaceutics and Clinical Pharmacokinetics, Lea and Febiger, Philadelphia, Pa., 1984, pp. 315-16). […]

Which “serum calcium response to rectal administration (in words)” value [1] does the source give for calcitonin [Saline] here?
Its value is “no significant response”.

What does the source list for horseradish peroxidase [Control HRP]?
% Activity ([2]; Time 0 hours, converted with saline before assay): 100%; % Activity ([2]; Time 3 hours): 76%; % Activity ([2]; Time 6 hours): 73%; % Activity ([2]; Time 24 hours): 20%; % Activity ([2]; Time 27 hours): 20%; % Activity ([2]; Time 48 hours): 11%

For human growth hormone [Group C], which “AUC (area under the curve), trapezoid rule” value [3] is on record?
Its value is “approximately 24.5 ng-hr/ml”.

Which “uptake of the drug” value [3] does the source give for human growth hormone [hGH in buffer] here?
Its value is “no uptake of the drug”.
